Source: US20250320286A1
pKd: −log10 of the molar value.

Target: 4U-3pE-beta-Amyloid
Experiment: SPR; 4U-3pE-beta-Amyloid 0.6 to 4.5 nM

Substance: Control mAb (antibody)
- pKd: 10.42
- koff: 0.000156 s⁻¹
- kon: 4.11e+06 M⁻¹ s⁻¹
